Article PMC7734621

Target: Minerva virus protease (MVpro), NS6 3C-like protease of a GII.4 norovirus (Minerva virus (norovirus GII.4, 2006b variant))
Assay: SEC

Question: Which stoichiometry N does the source give for “Minerva virus protease (MVpro), NS6 3C-like protease of a GII.4 norovirus (enzyme)” here?
Answer: 2
